Source: the supplement of paper PMC10126150
± gives the standard deviation of the averaged measurements.

Test system: ATP
Assay: switch fluorescence ratio, 500 uM ATP over buffer (Cy3 cluster intensity, sum of 5 cycles each) (fold (ratio)); higher = stronger signal-on switching upon ATP binding; sequences stand for … in TCGTCGGCAGCGTCAGATGTGTATAAGAGACAGTTTTTTTTTTTTTTTTTTTTTTTTT…TC
Conditions: aptamer strand: ATP DNA aptamer (quencher-CACCTGGGGGAGTATTGCGGAGGAAGG + anchor), 100 nM annealed; ATP concentration: 500 uM
Summary of the method: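 Imaging in selection buffer was followed by imaging after 15 min with 500 uM ATP at 22 °C, for Cy3-labelled switching-strand clusters annealed to 100 nM quencher-labelled ATP aptamer on a modified Illumina MiSeq flow-cell. Five of these buffer/ATP cycles ran, separated by NaOH stripping and re-annealing. The fluorescence ratio per cluster is summed target-cycle over summed buffer-cycle Cy3 intensity, averaged per switch-domain sequence; clusters outside 100-1000 RFU were removed.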
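Further: ATP exposure 15 min at 22 °C before imaging.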

| Sequence | switch fluorescence ratio |
| --- | --- |
| AGTAAATCCT | 1.16 ± 0.0084 |
| AGTAACCGGG | 1.02 ± 0.035 |
| AGTAAGACAG | 0.986 ± 0.08 |
| AGTAAGGTTT | 0.985 ± 0.04 |
| AGTAAGTGGG | 0.956 ± 0.048 |
| AGTAATGGG | 0.97 ± 0.054 |
| AGTAATGTAG | 1 ± 0.037 |
| AGTAATGTTT | 0.994 ± 0.02 |
| AGTAATTTGC | 1.02 ± 0.012 |
| AGTACCATGG | 1.01 ± 0.06 |
| AGTACGGTAA | 1.13 ± 0.025 |
| AGTACGTCTC | 1.04 ± 0.0099 |
| AGTAGGAAGC | 1.01 ± 0.03 |
| AGTAGGAATT | 0.99 ± 0.038 |
| AGTAGGACGC | 1.02 ± 0.018 |
| AGTAGGGGCC | 1.012 ± 0.0083 |
| AGTAGGGGG | 1 ± 0.056 |
| AGTAGTACGG | 1 ± 0.029 |
| AGTAGTGCGT | 0.997 ± 0.04 |
| AGTAGTGGGG | 0.994 ± 0.013 |
| AGTATAATTT | 0.978 ± 0.045 |
| AGTATATATT | 1.003 ± 0.0035 |

| Sequence | switch fluorescence ratio |
| --- | --- |
| AGTATATGTG | 0.955 ± 0.023 |
| AGTATATTTT | 1.006 ± 0.0046 |
| AGTATCACGG | 1.011 ± 0.0068 |
| AGTATCGTGC | 0.9968 ± 0.0098 |
| AGTATGACGT | 0.986 ± 0.026 |
| AGTATGAGGG | 1 ± 0.076 |
| AGTATGAGTC | 1.056 ± 0.01 |
| AGTATGGTAG | 1.0145 ± 0.00092 |
| AGTATTAATG | 1 ± 0.04 |
| AGTATTAGAA | 0.978 ± 0.012 |
| AGTATTGGTT | 0.986 ± 0.021 |
| AGTCAAACGA | 1.03 ± 0.028 |
| AGTCAAATGG | 0.996 ± 0.043 |
| AGTCAAGGGT | 1 ± 0.0014 |
| AGTCAGGTT | 1.02 ± 0.019 |
| AGTCAGTCTG | 1.01 ± 0.059 |
| AGTCAGTTGG | 0.967 ± 0.041 |
| AGTCATAAAG | 0.984 ± 0.014 |
| AGTCCAAGAG | 0.9889 ± 0.0045 |
| AGTCCCGTGC | 1.03 ± 0.052 |
| AGTCCTAGCC | 0.97 ± 0.012 |
| AGTCCTCGGC | 1.13 ± 0.071 |

| Sequence | switch fluorescence ratio |
| --- | --- |
| AGTCCTGGCC | 0.999 ± 0.022 |
| AGTCCTGGCG | 1.07 ± 0.023 |
| AGTCCTTTTT | 0.979 ± 0.021 |
| AGTCGATGTC | 0.9763 ± 0.0039 |
| AGTCGCCCGC | 1.02 ± 0.032 |
| AGTCGCGGAG | 1 ± 0.08 |
| AGTCGGGGGA | 1.01 ± 0.023 |
| AGTCGGGGTA | 1.02 ± 0.027 |
| AGTCGGTGTG | 0.963 ± 0.0099 |
| AGTCGTCTTG | 0.977 ± 0.026 |
| AGTCTAAACT | 1.02 ± 0.016 |
| AGTCTACTAT | 1 ± 0.0088 |
| AGTCTCAAGT | 1.01 ± 0.045 |
| AGTCTGAAGG | 0.995 ± 0.014 |
| AGTCTGCCA | 0.977 ± 0.015 |
| AGTCTGGGGG | 0.959 ± 0.011 |
| AGTCTTAGTC | 0.9497 ± 0.002 |
| AGTGAAGGGG | 1.1 ± 0.15 |
| AGTGAATTCA | 1.016 ± 0.0062 |
| AGTGACGGTT | 0.977 ± 0.021 |
| AGTGAGAGGG | 0.966 ± 0.051 |
| AGTGAGGCGG | 1.02 ± 0.013 |

| Sequence | switch fluorescence ratio |
| --- | --- |
| AGTGAGGGAA | 0.9787 ± 0.003 |
| AGTGAGGGGA | 0.975 ± 0.015 |
| AGTGAGTGCA | 1.039 ± 0.0094 |
| AGTGATGTGG | 1 ± 0.024 |
| AGTGATTCGT | 1.01 ± 0.038 |
| AGTGATTGAA | 0.987 ± 0.033 |
| AGTGATTGGG | 0.995 ± 0.031 |
| AGTGCAACTG | 1.01 ± 0.03 |
| AGTGCAGGGA | 0.9894 ± 0.0077 |
| AGTGCCTATG | 0.994 ± 0.019 |
| AGTGCGCATG | 1.01 ± 0.032 |
| AGTGCGGCCG | 0.9846 ± 0.0036 |
| AGTGCGGTGG | 1 ± 0.059 |
| AGTGCTTACG | 0.995 ± 0.025 |
| AGTGCTTTTA | 0.9927 ± 0.0073 |
| AGTGGATATT | 1.02 ± 0.011 |
| AGTGGCACTG | 0.996 ± 0.0088 |
| AGTGGCTTCC | 2.043 ± 0.013 |
| AGTGGGATTA | 1.01 ± 0.021 |
